Consider seven molecules from PMC10115844, “The structural basis of tRNA recognition by arginyl-tRNA-protein transferase”.

For series [1], the target named is T1, scATE1 (arginyl-tRNA-protein transferase 1) (Saccharomyces cerevisiae) (UniProt P16639).
T1 sequence: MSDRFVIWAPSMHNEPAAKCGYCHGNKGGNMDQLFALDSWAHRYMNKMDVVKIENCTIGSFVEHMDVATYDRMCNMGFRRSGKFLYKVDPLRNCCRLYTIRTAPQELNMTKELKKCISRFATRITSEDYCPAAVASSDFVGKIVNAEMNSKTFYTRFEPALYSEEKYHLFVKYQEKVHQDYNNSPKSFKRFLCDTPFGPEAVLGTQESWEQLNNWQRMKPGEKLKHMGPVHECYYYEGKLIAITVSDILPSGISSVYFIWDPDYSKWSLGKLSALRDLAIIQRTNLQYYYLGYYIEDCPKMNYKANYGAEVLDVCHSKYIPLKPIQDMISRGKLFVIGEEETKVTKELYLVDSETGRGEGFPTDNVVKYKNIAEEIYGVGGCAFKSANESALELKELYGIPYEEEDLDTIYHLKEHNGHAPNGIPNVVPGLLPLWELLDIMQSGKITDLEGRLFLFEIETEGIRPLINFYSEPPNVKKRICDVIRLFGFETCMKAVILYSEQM
As to the kind of experiment: EMSA. To be noted: EMSA: 20 mM Tris-HCl pH 7.5, 150 mM NaCl, 5 mM DTT, on ice (tRNAArg: 0.001% NP-40, 30 °C), MST: 10 mM Tris, 5 mM Na phosphate pH 7.0, 100 mM NaCl, 3 mM DTT …. Background: In EMSA bound probe runs differently from free probe, usually more slowly.

Series [2] deals with T2, scATE1 (arginyl-tRNA-protein transferase 1) (Saccharomyces cerevisiae, UniProt P16639 1-503).
T2 sequence: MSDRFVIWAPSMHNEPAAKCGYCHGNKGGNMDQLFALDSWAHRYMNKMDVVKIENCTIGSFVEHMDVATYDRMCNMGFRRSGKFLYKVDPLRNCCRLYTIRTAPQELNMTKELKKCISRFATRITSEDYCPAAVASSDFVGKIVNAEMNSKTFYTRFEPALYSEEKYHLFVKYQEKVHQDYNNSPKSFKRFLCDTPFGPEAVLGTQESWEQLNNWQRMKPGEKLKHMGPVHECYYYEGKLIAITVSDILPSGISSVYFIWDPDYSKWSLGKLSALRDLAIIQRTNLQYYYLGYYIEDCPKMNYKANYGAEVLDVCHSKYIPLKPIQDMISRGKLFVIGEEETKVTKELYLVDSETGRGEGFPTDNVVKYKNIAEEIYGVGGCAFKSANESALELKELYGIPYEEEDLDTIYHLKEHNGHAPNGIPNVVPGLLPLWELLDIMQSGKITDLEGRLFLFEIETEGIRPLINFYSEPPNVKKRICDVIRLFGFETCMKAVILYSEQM
As to the kind of experiment: cryoEM structure; co-purified complex, 3.7 Å map; EMD-29638; EMSA: 20 mM Tris-HCl pH 7.5, 150 mM NaCl, 5 mM DTT, on ice (tRNAArg: 0.001% NP-40, 30 °C); MST: 10 mM Tris, 5 mM Na phosphate pH 7.0, 100 mM NaCl, 3 mM DTT, 0.08% Tween-20; fluorescence: 20 mM Tris pH 7.5, 125 mM NaCl, 3 mM DTT, 27 °C. To be noted: protein: recombinant; tags: N-terminal GST (pGEX 6p-1), cleaved with PreScission; label: none; tRNA cloverleaf.

The target in series [3] is T2, scATE1 (arginyl-tRNA-protein …). As to the kind of experiment: MST competition; displacement of FAM-DNA, 30 µM ATE1; EMSA: 20 mM Tris-HCl pH 7.5, 150 mM NaCl, 5 mM DTT, on ice (tRNAArg: 0.001% NP-40, 30 °C); MST: 10 mM Tris, 5 mM Na phosphate pH 7.0, 100 mM NaCl, 3 mM DTT, 0.08% Tween-20; fluorescence: 20 mM Tris pH 7.5, 125 mM NaCl, 3 mM DTT, 27 °C. To be noted: protein: recombinant; tags: N-terminal GST (pGEX 6p-1), cleaved with PreScission; label: none (SYBR green stain); hairpin.

Take E. coli tRNALys acceptor arm: in series [1] (smeary bands, possibly non-specific), the Kd amounted to 4 µM.

In series [1] (0.25 µM tRNA, affinity similar to acceptor arm alone), “full-length tRNALys, in vitro transcribed” returned a binding signal (fold weaker than tRNAArg) of 20. The molecule human tRNAArg acceptor (A) arm gave a Kd in series [1] (2-fold stronger than E. coli acceptor arm) of 1.5 µM. For the molecule human tRNAArg, in vitro transcribed, in series [1] (30 °C, 0.001% NP-40, 1 nM RNA, apparent Kd), the Kd was 0.155 µM.

For the molecule human tRNAArg A + T arms, the binding signal (fold higher affinity from A + T arms) in series [1] was found to be 4.

B1: tRNAArg (argU) in the cryoEM complex (structured_RNA)
RNA: GCGCCCUUAGCUCAGUUGGAUAGAGCAACGACCUUCUAAGUCGUGGGCCGCAGGUUCGAAUCCUGCAGGGCGCGCCA
modifications: native modifications possible, not stated
As for B1, the binding result in series [2] was “binds”.

B2: E. coli tRNAArg acceptor arm miniRNA hairpin (structured_RNA)
RNA: GCAUCCGCUACGAACGGAUGCACCA
In the case of B2, the Ki in series [3] was ~3.6 µM.

For orientation: Ki means the dissociation constant of the complex between target and ligand, obtained from inhibition or displacement.
